The target of assay [1] is T1, human IL-4 (human, UniProt P05112 25-153).
T1 construct: E. coli-expressed, made and purified at GSK; also called rhIL-4; recombinant E. coli-expressed human IL-4
T1 sequence: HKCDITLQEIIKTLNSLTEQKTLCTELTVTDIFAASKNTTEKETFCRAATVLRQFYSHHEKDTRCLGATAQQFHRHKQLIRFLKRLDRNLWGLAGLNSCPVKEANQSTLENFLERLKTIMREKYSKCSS
The assay can be described thus: Biacore.

The target in assay [2] is T2, human IL-13 (human, UniProt P35225 35-146).
T2 construct: E. coli-expressed, made and purified at GSK; also called rhIL-13; recombinant E. coli-expressed human IL-13

B1: PascoL-EPKSC-474 (bispecific antibody, human IgG1, kappa)
heavy: not shown
light: DIVLTQSPSSLSASVGDRVTITCKASQSVDYDGDSYMNWYQQKPGKAPKLLIYAASNLESGIPSRFSGSGSGTDFTFTISSLQPEDIATYYCQQSNEDPPTFGQGTKVEIKRTVAAPSVFIFPPSDEQLKSGTASVVCLLNNFYPREAKVQWKVDNALQSGNSQESVTEQDSKDSTYSLSSTLTLSKADYEKHKVYACEVTHQGLSSPVTKSFNRGECEPKSCDKTHTCPPCPGSGVQLLESGGGLVQPGGSLRLSCAASGFTFAWYDMGWVRQAPGKGLEWVSSIDWHGEVTYYADSVKGRFTISRDNSKNTLYLQMNSLRAEDTAVYYCATAEDEPGYDYWGQGTLVTVSS
Turning to B1, the “fold less potent than Pascolizumab” value in assay [1] was about 2 fold.

B2: Anti-human IL-13 monoclonal antibody (also known as 586) (antibody, human IgG1, kappa)
heavy: not shown
light: DIVMTQSPLSLPVTPGEPASISCRSSQNIVHINGNTYLEWYLQKPGQSPRLLIYKISDRFSGVPDRFSGSGSGTDFTLKISRVEADDVGIYYCFQGSHVPWTFGQGTKLEIKRTVAAPSVFIFPPSDEQLKSGTASVVCLLNNFYPREAKVQWKVDNALQSGNSQESVTEQDSKDSTYSLSSTLTLSKADYEKHKVYACEVTHQGLSSPVTKSFNRGEC
notes: humanised, human IgG1/kappa; also called Anti-human IL-13 mAb; anti-IL13 mAb
Broadly, the Kd is the constant that tells how readily two partners part at equilibrium. For B2, binding in assay [2] was characterised by a dissociation constant (Kd) of 0.3 nM.

Source of the values: patent publication US20090148905A1 (published 2009).
